Molecular target: M2 isoenzyme of pyruvate kinase (M2PYK), human, N-terminal His6 tag (human) (UniProt P14618)
Test: SEC; analytical gel chromatography, Superdex 200 PC 3.2/30, 0.1 ml/min; protein diluted from 20 mg/ml to 0.1 mg/ml and incubated up to 12 h (overnight) at room temperature in PBS-CM pH 7.4, without or with 10 mM serine, phenylalanine, alanine or tryptophan; apparent constant, tetramer to monomers

Sequence of M2 isoenzyme of pyruvate kinase (M2PYK), human, N-terminal His6 tag, P14618 1-531 (enzyme; other documents disagree on this pair) (P14618 whole entry): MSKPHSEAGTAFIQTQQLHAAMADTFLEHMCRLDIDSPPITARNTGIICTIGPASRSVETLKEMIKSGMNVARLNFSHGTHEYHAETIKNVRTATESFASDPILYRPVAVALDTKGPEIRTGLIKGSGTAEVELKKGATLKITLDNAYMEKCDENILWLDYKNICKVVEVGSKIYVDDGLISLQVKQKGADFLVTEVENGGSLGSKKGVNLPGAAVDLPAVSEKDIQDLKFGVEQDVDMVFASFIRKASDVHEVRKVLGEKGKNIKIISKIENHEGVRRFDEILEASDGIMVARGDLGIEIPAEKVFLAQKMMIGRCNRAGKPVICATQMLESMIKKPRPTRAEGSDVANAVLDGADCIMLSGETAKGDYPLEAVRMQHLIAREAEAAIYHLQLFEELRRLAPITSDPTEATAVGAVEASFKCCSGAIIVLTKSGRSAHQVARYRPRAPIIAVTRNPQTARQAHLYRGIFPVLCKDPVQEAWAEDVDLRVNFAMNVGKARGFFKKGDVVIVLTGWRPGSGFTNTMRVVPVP

Kd: 900 nM
Substance: M2 isoenzyme of pyruvate kinase (M2PYK), human, N-terminal His6 tag, P14618 1-531 (enzyme; other documents disagree on this pair)

Source: PMC5980995, “An allostatic mechanism for M2 pyruvate kinase as an amino-acid sensor” (Biochemical Journal, 2018)
